Values of other authors in paper PMC12730246.

Target: TKS4 peptide (Homo sapiens) (UniProt A1X283)

Kd: 12 µM
Substance: TKS4 tandem SH3 tandem SH3 (from UniProt A1X283)
